B1: Semaphorin-4C (Mus musculus), Q64151 (parent)
chain: MAPHWAVWLLAAGLWGLGIGAEMWWNLVPRKTVSSGELVTVVRRFSQTGIQDFLTLTLTEHSGLLYVGAREALFAFSVEALELQGAISWEAPAEKKIECTQKGKSNQTECFNFIRFLQPYNSSHLYVCGTYAFQPKCTYINMLTFTLDRAEFEDGKGKCPYDPAKGHTGLLVDGELYSATLNNFLGTEPVILRYMGTHHSIKTEYLAFWLNEPHFVGSAFVPESVGSFTGDDDKIYFFFSERAVEYDCYSEQVVARVARVCKGDMGGARTLQKKWTTFLKARLVCSAPDWKVYFNQLKAVHTLRGASWHNTTFFGVFQARWGDMDLSAVCEYQLEQIQQVFEGPYKEYSEQAQKWARYTDPVPSPRPGSCINNWHRDNGYTSSLELPDNTLNFIKKHPLMEDQVKPRLGRPLLVKKNTNFTHVVADRVPGLDGATYTVLFIGTGDGWLLKAVSLGPWIHMVEELQVFDQEPVESLVLSQSKKVLFAGSRSQLVQLSLADCTKYRFCVDCVLARDPYCAWNVNTSRCVATTSGRSGSFLVQHVANLDTSKMCNQYGIKKVRSIPKNITVVSGTDLVLPCHLSSNLAHAHWTFGSQDLPAEQPGSFLYDTGLQALVVMAAQSRHSGPYRCYSEEQGTRLAAESYLVAVVAGSSVTLEARAPLENLGLVWLAVVALGAVCLVLLLLVLSLRRRLREELEKGAKASERTLVYPLELPKEPASPPFRPGPETDEKLWDPVGYYYSDGSLKIVPGHARCQPGGGPPSPPPGIPGQPLPSPTRLHLGGGRNSNANGYVRLQLGGEDRGGSGHPLPELADELRRKLQQRQPLPDSNPEESSV
partner: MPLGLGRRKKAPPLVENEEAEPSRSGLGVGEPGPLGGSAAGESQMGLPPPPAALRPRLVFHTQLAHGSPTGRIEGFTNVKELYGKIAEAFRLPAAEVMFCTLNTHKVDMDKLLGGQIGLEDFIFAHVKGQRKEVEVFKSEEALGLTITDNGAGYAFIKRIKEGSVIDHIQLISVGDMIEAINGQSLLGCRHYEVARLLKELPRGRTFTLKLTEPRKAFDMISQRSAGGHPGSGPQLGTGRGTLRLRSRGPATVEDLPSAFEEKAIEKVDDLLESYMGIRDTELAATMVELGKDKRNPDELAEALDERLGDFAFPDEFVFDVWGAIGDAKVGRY

Variants of: B1
Conditions: with gipc1_mouse Gipc1, Q9Z0G0

effect of a mutation on the interaction | Variant
disrupting interaction | S832D
disrupting interaction | S832A
